Assay results published in patent US20170306001A1.

Experiments:
[1] = biological target: DL06-HA, full length HA of A/duck/Laos/3295/2006(H5N1) (clade 2.3.4) (influenza A virus A/duck/Laos/3295/2006(H5N1)); experiment: cell-based or functional assay
[2] = biological target: native H5 HA from multiple H5N1 clades; experiment: cell-based or functional assay

B1: Mouse MAb 9F4 (antibody, V domains shown)
V domain 1: QQSEAELARPGASVKMSCKASGFTLTTFTIHWVKQRPGQGLEWIGYINPRSGYTDYNQKFKDNTTLTVDKSSSTAYMQLSSLTSEDSAVFYCARSYYDYDVFDYWGQGTTLTV
V domain 2: DVQMTQSPSSLSASLGGKVTITCTARQDINKYIAWYQHKPGKGPRLLIHYTSTLQPGIPSRFSGSGSGTDYSFTISNLEPEDIATYYCLQYDNLVTFGGGTK
IC50, entry of HA-pseudotyped lentiviral particles into MDCK cells (luciferase) [1]: 0.01 µg/mL | IC95, HApp neutralization [2]: 0.1 µg/mL
